The text below walks through data of patent publication US20210063414A1, “METHODS FOR PREVENTING AND/OR TREATING BONE LOSS CONDITIONS BY MODULATING IRISIN” (Dana-Farber Cancer Institute, Inc., priority 2018, published 2021).

Common to all, as to experiment: Crosslinking/co-immunoprecipitation/mass spectrometry (TMT quantitative proteomics) to identify irisin receptors
What all share (format): binding

Test [1] concerns the target T1, MLO-Y4 cell surface proteins (Mus musculus, UniProt P62880).
T1 construct: endogenous in cells; host or cells: MLO-Y4
Conditions: co-precipitated protein Gnb2 (GBB2_MOUSE). An outline of the steps: (§1)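 Relative protein abundance came from 6-plex TMT MS3 quantitation on an Orbitrap Fusion Lumos, after in-gel trypsin digestion of Coomassie-stained SDS-PAGE lanes. Input was a Ni-NTA pulldown (250 mM imidazole elution) of lysates from murine MLO-Y4 cells. These cells were treated on ice with His-tagged irisin or adipsin (10 nM, 20 min) in serum-free medium, then crosslinked with 1.5 mM DTSSP for 30 min.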

Test [2] concerns the target T2, MLO-Y4 cell surface proteins (Mus musculus, UniProt Q9D125).
T2 construct: endogenous in cells; host or cells: MLO-Y4
Conditions: co-precipitated protein Mrps25 (RT25_MOUSE). The gist of the method: as §1

The target in test [3] is T3, MLO-Y4 cell surface proteins (Mus musculus, UniProt Q99KR7).
T3 construct: endogenous in cells; host or cells: MLO-Y4
Conditions: co-precipitated protein Ppif (PPIF_MOUSE). An outline of the steps: as §1

In test [4] the target is T4, MLO-Y4 cell surface proteins (Mus musculus, UniProt Q791V5).
T4 construct: endogenous in cells; host or cells: MLO-Y4
T4 sequence (Q791V5 1-303): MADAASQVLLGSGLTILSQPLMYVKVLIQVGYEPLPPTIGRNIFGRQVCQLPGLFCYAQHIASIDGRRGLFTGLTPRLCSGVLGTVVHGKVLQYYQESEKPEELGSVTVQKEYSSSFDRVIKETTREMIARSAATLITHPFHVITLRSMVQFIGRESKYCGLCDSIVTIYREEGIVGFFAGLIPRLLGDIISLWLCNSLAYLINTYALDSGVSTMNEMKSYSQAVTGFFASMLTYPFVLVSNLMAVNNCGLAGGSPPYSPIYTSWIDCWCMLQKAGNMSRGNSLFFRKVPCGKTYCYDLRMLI
The conditions noted are these: co-precipitated protein Mteh2 (MTCH2_MOUSE). The gist of the method:
as §1

Test [5] addresses T5, MLO-Y4 cell surface proteins (Mus musculus, UniProt Q8K221).
T5 construct: endogenous in cells; host or cells: MLO-Y4
T5 sequence (Q8K221 1-341): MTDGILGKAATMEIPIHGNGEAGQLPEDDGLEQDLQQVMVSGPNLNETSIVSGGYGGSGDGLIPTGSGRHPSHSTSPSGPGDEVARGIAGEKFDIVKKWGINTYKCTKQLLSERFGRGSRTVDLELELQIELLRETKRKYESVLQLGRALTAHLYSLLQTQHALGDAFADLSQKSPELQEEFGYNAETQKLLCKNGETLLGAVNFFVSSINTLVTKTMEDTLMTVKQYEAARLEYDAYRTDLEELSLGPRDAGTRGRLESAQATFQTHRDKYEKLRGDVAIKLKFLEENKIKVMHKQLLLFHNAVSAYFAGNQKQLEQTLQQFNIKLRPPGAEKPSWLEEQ
The conditions noted are these: co-precipitated protein Arfip2 (ARFP2_MOUSE). The gist of the method: as §1

In test [6] the target is T6, MLO-Y4 cell surface proteins (Mus musculus, UniProt P60843).
T6 construct: endogenous in cells; host or cells: MLO-Y4
The conditions noted are these: co-precipitated protein Eif4a1 (IF4A1_MOUSE). An outline of the steps:
as §1

T3 sequence (Q99KR7 30-206): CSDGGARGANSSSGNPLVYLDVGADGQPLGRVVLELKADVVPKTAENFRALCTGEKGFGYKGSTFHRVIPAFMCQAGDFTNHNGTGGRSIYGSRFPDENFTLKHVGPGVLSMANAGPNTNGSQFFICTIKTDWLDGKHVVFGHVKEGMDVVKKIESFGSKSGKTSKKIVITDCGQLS
T6 sequence (P60843 whole entry): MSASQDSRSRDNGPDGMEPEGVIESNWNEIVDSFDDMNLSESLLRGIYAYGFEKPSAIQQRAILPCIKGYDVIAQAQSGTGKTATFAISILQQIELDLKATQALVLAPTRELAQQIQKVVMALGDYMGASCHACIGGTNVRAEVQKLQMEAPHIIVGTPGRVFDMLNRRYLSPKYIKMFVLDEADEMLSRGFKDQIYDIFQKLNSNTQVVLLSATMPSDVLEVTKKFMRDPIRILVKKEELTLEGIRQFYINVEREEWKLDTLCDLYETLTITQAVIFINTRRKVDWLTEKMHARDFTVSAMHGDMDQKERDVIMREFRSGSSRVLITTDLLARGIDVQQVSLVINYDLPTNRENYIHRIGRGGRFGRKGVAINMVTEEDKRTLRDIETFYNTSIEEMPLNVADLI
T1 sequence (P62880 whole entry): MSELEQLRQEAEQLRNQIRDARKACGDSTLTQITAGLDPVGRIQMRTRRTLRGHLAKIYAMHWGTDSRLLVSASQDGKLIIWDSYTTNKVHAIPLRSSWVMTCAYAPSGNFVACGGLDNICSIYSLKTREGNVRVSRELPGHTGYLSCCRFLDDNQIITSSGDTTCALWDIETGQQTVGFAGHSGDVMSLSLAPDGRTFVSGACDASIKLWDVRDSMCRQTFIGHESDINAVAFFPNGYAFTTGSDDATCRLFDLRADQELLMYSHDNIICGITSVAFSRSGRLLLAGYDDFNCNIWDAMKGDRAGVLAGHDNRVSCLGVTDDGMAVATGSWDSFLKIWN

B1: irisin: secreted cleaved form of FNDC5; recombinant human/mouse irisin with C-terminal his tag produced in HEK293 cells (protein)
chain: DSPSAPVNVTVRHLKANSAVVSWDVLEDEVVIGFAISQQKKDVRMLRFIQEVNTTTRSCALWDLEEDTEYIVHVQAISIQGQSPASEPVLFKTPREAEKMASKNKDEVTMKE
modifications: left off: small tags and cut ends
notes: secreted cleaved form of FNDC5; recombinant human/mouse irisin with C-terminal his tag produced in HEK293 cells
Regarding B1, the TMT signal-to-noise ratio is given as 165.95 in test [1]; 10.7103 in test [2]; 49.7858 in test [3]; 5.766 in test [4]; 377.903 in test [5]; 17.0483 in test [6]. Besides, the “irisin/adipsin TMT signal-to-noise ratio” value in test [1] came to 0.563; in test [2], 0.126; in test [3] it was 0.199; in test [4], 0.057; in test [5] it was 0.346; in test [6] it was 0.125.
